Data as given in US20150344570A1 (published 2015).

B1: GpH7-A5/GpH7-B3 variant S298_16H/GpL16-k0 (antibody, human IgG1, kappa)
heavy 1: not shown
heavy 2: not shown
light: DIVMTQSPLSLPVTPGEPASISCQASESLVHSNRNTYLHWYLQKPGQSPQLLIYKVSNRFSGVPDRFSGSGSGTDFTLKISRVEAEDVGVYYCSQNTHVPPTFGQGTKVEIERTVAAPSVFIFPPSDEQLKSGTASVVCLLNNFYPREAKVQWKVDNALQSGNSQESVTEQDSKDSTYSLSSTLTLSKADYEKHKVYACEVTHQGLSSPVTKSFNRGEC
notes: He Ab; IgG1, mutation in one H chain
B2: GpH7-A5/GpH7-B3 variant Y296_12R/GpL16-k0 (antibody, human IgG1, kappa)
heavy 1: not shown
heavy 2: not shown
light: DIVMTQSPLSLPVTPGEPASISCQASESLVHSNRNTYLHWYLQKPGQSPQLLIYKVSNRFSGVPDRFSGSGSGTDFTLKISRVEAEDVGVYYCSQNTHVPPTFGQGTKVEIERTVAAPSVFIFPPSDEQLKSGTASVVCLLNNFYPREAKVQWKVDNALQSGNSQESVTEQDSKDSTYSLSSTLTLSKADYEKHKVYACEVTHQGLSSPVTKSFNRGEC
notes: as for B1
B3: GpH7-A5/GpH7-B3 variant Y296_11K/GpL16-k0 (antibody, human IgG1, kappa)
heavy 1: not shown
heavy 2: not shown
light: DIVMTQSPLSLPVTPGEPASISCQASESLVHSNRNTYLHWYLQKPGQSPQLLIYKVSNRFSGVPDRFSGSGSGTDFTLKISRVEAEDVGVYYCSQNTHVPPTFGQGTKVEIERTVAAPSVFIFPPSDEQLKSGTASVVCLLNNFYPREAKVQWKVDNALQSGNSQESVTEQDSKDSTYSLSSTLTLSKADYEKHKVYACEVTHQGLSSPVTKSFNRGEC
notes: as for B1
B4: GpH7-A5/GpH7-B3 variant Y296_07I/GpL16-k0 (antibody, human IgG1, kappa)
heavy 1: not shown
heavy 2: not shown
light: DIVMTQSPLSLPVTPGEPASISCQASESLVHSNRNTYLHWYLQKPGQSPQLLIYKVSNRFSGVPDRFSGSGSGTDFTLKISRVEAEDVGVYYCSQNTHVPPTFGQGTKVEIERTVAAPSVFIFPPSDEQLKSGTASVVCLLNNFYPREAKVQWKVDNALQSGNSQESVTEQDSKDSTYSLSSTLTLSKADYEKHKVYACEVTHQGLSSPVTKSFNRGEC
notes: as for B1
B5: GpH7-A5/GpH7-B3 variant Y296_08L/GpL16-k0 (antibody, human IgG1, kappa)
heavy 1: not shown
heavy 2: not shown
light: DIVMTQSPLSLPVTPGEPASISCQASESLVHSNRNTYLHWYLQKPGQSPQLLIYKVSNRFSGVPDRFSGSGSGTDFTLKISRVEAEDVGVYYCSQNTHVPPTFGQGTKVEIERTVAAPSVFIFPPSDEQLKSGTASVVCLLNNFYPREAKVQWKVDNALQSGNSQESVTEQDSKDSTYSLSSTLTLSKADYEKHKVYACEVTHQGLSSPVTKSFNRGEC
notes: as for B1
B6: GpH7-A5/GpH7-B3 variant Y296_09D/GpL16-k0 (antibody, human IgG1, kappa)
heavy 1: not shown
heavy 2: not shown
light: DIVMTQSPLSLPVTPGEPASISCQASESLVHSNRNTYLHWYLQKPGQSPQLLIYKVSNRFSGVPDRFSGSGSGTDFTLKISRVEAEDVGVYYCSQNTHVPPTFGQGTKVEIERTVAAPSVFIFPPSDEQLKSGTASVVCLLNNFYPREAKVQWKVDNALQSGNSQESVTEQDSKDSTYSLSSTLTLSKADYEKHKVYACEVTHQGLSSPVTKSFNRGEC
notes: as for B1
B7: GpH7-A5/GpH7-B3 variant S324_07I/GpL16-k0 (antibody, human IgG1, kappa)
heavy 1: not shown
heavy 2: not shown
light: DIVMTQSPLSLPVTPGEPASISCQASESLVHSNRNTYLHWYLQKPGQSPQLLIYKVSNRFSGVPDRFSGSGSGTDFTLKISRVEAEDVGVYYCSQNTHVPPTFGQGTKVEIERTVAAPSVFIFPPSDEQLKSGTASVVCLLNNFYPREAKVQWKVDNALQSGNSQESVTEQDSKDSTYSLSSTLTLSKADYEKHKVYACEVTHQGLSSPVTKSFNRGEC
notes: as for B1
B8: GpH7-A5/GpH7-B3 variant Y296_10E/GpL16-k0 (antibody, human IgG1, kappa)
heavy 1: not shown
heavy 2: not shown
light: DIVMTQSPLSLPVTPGEPASISCQASESLVHSNRNTYLHWYLQKPGQSPQLLIYKVSNRFSGVPDRFSGSGSGTDFTLKISRVEAEDVGVYYCSQNTHVPPTFGQGTKVEIERTVAAPSVFIFPPSDEQLKSGTASVVCLLNNFYPREAKVQWKVDNALQSGNSQESVTEQDSKDSTYSLSSTLTLSKADYEKHKVYACEVTHQGLSSPVTKSFNRGEC
notes: as for B1
B9: GpH7-A5/GpH7-B3 variant Y296_02A/GpL16-k0 (antibody, human IgG1, kappa)
heavy 1: not shown
heavy 2: not shown
light: DIVMTQSPLSLPVTPGEPASISCQASESLVHSNRNTYLHWYLQKPGQSPQLLIYKVSNRFSGVPDRFSGSGSGTDFTLKISRVEAEDVGVYYCSQNTHVPPTFGQGTKVEIERTVAAPSVFIFPPSDEQLKSGTASVVCLLNNFYPREAKVQWKVDNALQSGNSQESVTEQDSKDSTYSLSSTLTLSKADYEKHKVYACEVTHQGLSSPVTKSFNRGEC
notes: as for B1
B10: GpH7-A5/GpH7-B3 variant Y296_04F/GpL16-k0 (antibody, human IgG1, kappa)
heavy 1: not shown
heavy 2: not shown
light: DIVMTQSPLSLPVTPGEPASISCQASESLVHSNRNTYLHWYLQKPGQSPQLLIYKVSNRFSGVPDRFSGSGSGTDFTLKISRVEAEDVGVYYCSQNTHVPPTFGQGTKVEIERTVAAPSVFIFPPSDEQLKSGTASVVCLLNNFYPREAKVQWKVDNALQSGNSQESVTEQDSKDSTYSLSSTLTLSKADYEKHKVYACEVTHQGLSSPVTKSFNRGEC
notes: as for B1

Key:
[1] = target: T1, FcγRIIb extracellular domain with C-terminal His tag (human, UniProt P31994 43-217); test: SPR (Biacore), captured antibody, FcγR as analyte; relative binding
T1 construct: extracellular domain; expressed in FreeStyle293 cells; analyte in Biacore; also called FcgRIIb; 2b
T1 sequence (looked up): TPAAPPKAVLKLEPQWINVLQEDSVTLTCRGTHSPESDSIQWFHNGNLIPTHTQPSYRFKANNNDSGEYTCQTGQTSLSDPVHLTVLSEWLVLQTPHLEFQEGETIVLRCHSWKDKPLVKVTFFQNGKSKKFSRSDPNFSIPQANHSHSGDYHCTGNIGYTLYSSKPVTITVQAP

[2] = target: T2, FcγRIa extracellular domain with C-terminal His tag (human, UniProt P12314 16-292); test: as above
T2 construct: extracellular domain; expressed in FreeStyle293 cells; analyte in Biacore; also called FcgRI; 1a
T2 sequence (P12314 16-292): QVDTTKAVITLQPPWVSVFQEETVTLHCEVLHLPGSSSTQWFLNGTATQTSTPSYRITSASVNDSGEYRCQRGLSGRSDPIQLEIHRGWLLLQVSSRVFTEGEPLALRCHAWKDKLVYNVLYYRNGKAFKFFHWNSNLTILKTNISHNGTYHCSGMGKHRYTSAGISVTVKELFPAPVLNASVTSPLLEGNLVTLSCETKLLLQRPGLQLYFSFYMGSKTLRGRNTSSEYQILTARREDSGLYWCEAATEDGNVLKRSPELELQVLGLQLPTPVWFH

Row | Binder | He/Con_2b [1] | He/Con_1a [2]
1 | B1 | 63.5 % of HeCon Ab (GpH7-A5/GpH7-B3/GpL16-k0 = 100) | 109 % of HeCon Ab (GpH7-A5/GpH7-B3/GpL16-k0 = 100)
2 | B2 | 79.5 % of HeCon Ab (GpH7-A5/GpH7-B3/GpL16-k0 = 100) | 106 % of HeCon Ab (GpH7-A5/GpH7-B3/GpL16-k0 = 100)
3 | B3 | 72.8 % of HeCon Ab (GpH7-A5/GpH7-B3/GpL16-k0 = 100) | 105 % of HeCon Ab (GpH7-A5/GpH7-B3/GpL16-k0 = 100)
4 | B4 | 84.3 % of HeCon Ab (GpH7-A5/GpH7-B3/GpL16-k0 = 100) | 104 % of HeCon Ab (GpH7-A5/GpH7-B3/GpL16-k0 = 100)
5 | B5 | 82.3 % of HeCon Ab (GpH7-A5/GpH7-B3/GpL16-k0 = 100) | 104 % of HeCon Ab (GpH7-A5/GpH7-B3/GpL16-k0 = 100)
6 | B6 | 98.9 % of HeCon Ab (GpH7-A5/GpH7-B3/GpL16-k0 = 100) | 106 % of HeCon Ab (GpH7-A5/GpH7-B3/GpL16-k0 = 100)
7 | B7 | 95.7 % of HeCon Ab (GpH7-A5/GpH7-B3/GpL16-k0 = 100) | 102 % of HeCon Ab (GpH7-A5/GpH7-B3/GpL16-k0 = 100)
8 | B8 | 98 % of HeCon Ab (GpH7-A5/GpH7-B3/GpL16-k0 = 100) | 106 % of HeCon Ab (GpH7-A5/GpH7-B3/GpL16-k0 = 100)
9 | B9 | 82 % of HeCon Ab (GpH7-A5/GpH7-B3/GpL16-k0 = 100) | 103 % of HeCon Ab (GpH7-A5/GpH7-B3/GpL16-k0 = 100)
10 | B10 | 99.2 % of HeCon Ab (GpH7-A5/GpH7-B3/GpL16-k0 = 100) | 104 % of HeCon Ab (GpH7-A5/GpH7-B3/GpL16-k0 = 100)
